# Source: patent US20240400656A1 (WASHINGTON UNIVERSITY, published 2024)
# T1: RoxP_HypProt_pET-22b
# T1 construct: also called RoxP_6
# T1 single chain: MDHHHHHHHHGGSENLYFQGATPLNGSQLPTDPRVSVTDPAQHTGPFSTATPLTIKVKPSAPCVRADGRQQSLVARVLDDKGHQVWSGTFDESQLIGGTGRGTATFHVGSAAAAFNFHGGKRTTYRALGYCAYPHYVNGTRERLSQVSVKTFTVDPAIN
# B1: 2H2F3 (antibody, V domains shown)
# VH: QVQLQQSGAELVRPGVSVKISCKGSGYTFTDYAMHWVKQSHAKSLEWIGIISTYYGNASYNQKFKGKATMTVDKSSSTAYMELARLTSEDSAIYYCARVPYYGSSYAMDYWGQGTSVTVSS
# VL: DVLMTQTPLSLPVSLGDQASISCRSSQNIVHSDGNTYLEWYLQKPGQSPKLLIYKVSNRFSGVPDRFSGSGSGTDFTLKISRVEAEDLGVYYCFQGSHVPWTFGGGTKLEIK
# notes: also called IgG-2H2F3-1; 2H2F3-1
# Target: T1, RoxP_HypProt_pET-22b
# Test: indirect ELISA on recombinant RoxP orthologs, absorbance normalized (%)
binder,measurement,value
B1,binding result,no binding (tested: 330 ng/ml)
